Positions count from the first letter of the chain named.
B1: Antibody 5 (antibody, V domains shown)
VH: QVQLVESGGGLVKPGGSLRLSCAASGFTFSDYYMTWIRQAPGKGLEWVSYISISGITRYYADSVKGRFTISRDNAKNSLYLQMNSLRAEDTAVYYCARDQTGYFDYWGQGTLVTVSS
VL: DIVMTQSPATLSVSPGEKTTLSCRASQSFSSNLAWYQQKPGQAPRLLIYGASTRATGIPARFSGSGSGTEFTLTISSLQSEDFAVYYCQQYINWPHTFGQGTKVEIK
B2: Antibody 4 (antibody, V domains shown)
VH: QVQLVQSGAEVKKPGASVKVSCKASGYTFTSYGISWVRQAPGQGLEWMGWISAYNGNTNYAQKLQGRVTMTTDTSTSTAYMELRSLRSDDTAVYYCARSYSGSYWWFDPWGQGTLVTVSS
VL: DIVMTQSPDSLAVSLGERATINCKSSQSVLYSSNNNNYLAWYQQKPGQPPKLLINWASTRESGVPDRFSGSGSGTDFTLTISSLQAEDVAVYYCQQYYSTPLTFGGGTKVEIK
B3: Antibody 3 (antibody, V domains shown)
VH: B2 VH with Y104H
VL: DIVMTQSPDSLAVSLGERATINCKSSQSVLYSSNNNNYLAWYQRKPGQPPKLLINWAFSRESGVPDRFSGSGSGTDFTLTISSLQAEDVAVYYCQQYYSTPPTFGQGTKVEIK
B4: Antibody 1 (antibody, V domains shown)
VH: QVQLVESGGGLVKPGGSLRLSCAASGFTFSDYYMSWIRQAPGKGLEWVSYISSSGSIKKYADSVKGRFTISRDNAKNSLYLQMNSLRGEDTAVYYCARTNWHFDYWGQGTLVTVSS
VL: EIVLTQSPGTLSLSPGERATLSCRASQSVSSSYLAWYQQKPGQAPRLLIFGASTRATGIPDRFSGSGSGTDFTLTISRLEPEDVAVYYCQQYYSTPFTFGPGTKVDIK
B5: Antibody 2 (antibody, V domains shown)
VH: QVQLVESGGDLVKPGGSLRLSCAASGFTFRDYYMSWIRQAPGKGLEWVSYISPSGSTIFYADSVKGRFTISRDNAKNSLYLQMNSLRAEDTAVYYCAKDRVRLFDYWGQGTLVTVSS
VL: EIVLTQSPATLSLSPGERATLSCRASQSVSSSYLAWYQQKPGQAPRLLIYGASTRATGIPARFSGSGSGTDFTLTISRLEPEDFAVYYCQQRSNWPITFGQGTRLEIK

These binders were tested against Human full length LILRB1 (UniProt Q8NHL6 24-650) (assay: flow cytometry, HEK293 cells overexpressing LILRB1).
Sequence of Human full length LILRB1 (Q8NHL6 24-650): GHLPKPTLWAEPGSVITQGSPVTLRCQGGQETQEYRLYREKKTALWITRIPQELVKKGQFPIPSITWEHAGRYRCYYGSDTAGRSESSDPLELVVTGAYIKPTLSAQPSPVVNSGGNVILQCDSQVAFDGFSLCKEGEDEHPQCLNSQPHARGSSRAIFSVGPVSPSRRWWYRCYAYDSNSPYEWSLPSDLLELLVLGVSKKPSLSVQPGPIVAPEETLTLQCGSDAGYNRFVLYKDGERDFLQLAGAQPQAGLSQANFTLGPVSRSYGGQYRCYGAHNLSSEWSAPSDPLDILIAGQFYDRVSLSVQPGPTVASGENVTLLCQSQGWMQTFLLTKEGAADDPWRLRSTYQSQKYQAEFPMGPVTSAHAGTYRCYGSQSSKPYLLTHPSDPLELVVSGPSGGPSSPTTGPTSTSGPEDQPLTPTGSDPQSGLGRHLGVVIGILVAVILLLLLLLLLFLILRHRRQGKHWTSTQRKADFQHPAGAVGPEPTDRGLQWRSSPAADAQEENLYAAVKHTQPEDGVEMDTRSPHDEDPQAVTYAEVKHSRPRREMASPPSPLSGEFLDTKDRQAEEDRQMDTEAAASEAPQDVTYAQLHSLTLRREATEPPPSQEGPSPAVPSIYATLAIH

Row | EC50 [nM] | Binder
1 | 2.24 | B1
2 | 1.21 | B2
3 | 1.57 | B3
4 | 0.37 | B4
5 | 0.52 | B5

From patent US20250197491A1 (published 2025)
